Laboratory results: article PMC8135088
Where a chain is given by its changes, count along the chain named. In names and notes the source's numbering stands.

B1: PcPOX (pyranose 2-oxidase from Phanerochaete chrysosporium) (Phanerodontia chrysosporium) (protein)
chain: MFLDTTPFRADEPYDVFIAGSGPIGATFAKLCVDANLRVCMVEIGAADSFTSKPMKGDPNAPRSVQFGPGQVPIPGYHKKNEIEYQKDIDRFVNVIKGALSTCSIPTSNNHIATLDPSVVSNSLDKPFISLGKNPAQNPFVNLGAEAVTRGVGGMSTHWTCATPEFFAPADFNAPHRERPKLSTDAAEDARIWKDLYAQAKEIIGTSTTEFDHSIRHNLVLRKYNDIFQKENVIREFSPLPLACHRLTDPDYVEWHATDRILEELFTDPVKRGRFTLLTNHRCTKLVFKHYRPGEENEVDYALVEDLLPHMQNPGNPASVKKIYARSYVVACGAVATAQVLANSHIPPDDVVIPFPGGEKGSGGGERDATIPTPLMPMLGKYITEQPMTFCQVVLDSSLMEVVRNPPWPGLDWWKEKVARHVEAFPNDPIPIPFRDPEPQVTIKFTEEHPWHVQIHRDAFSYGAVAENMDTRVIVDYRFFGYTEPQEANELVFQQHYRDAYDMPQPTFKFTMSQDDRARARRMMDDMCNIALKIGGYLPGSEPQFMTPGLALHLAGTTRCGLDTQKTVGNTHCKVHNFNNLYVGGNGVIETGFAANPTLTSICYAIRASNDIIAKFGRHRG
B2: PcPOX (pyranose 2-oxidase from Phanerochaete chrysosporium) (Phanerodontia chrysosporium; A551N) (protein)
chain: B1 chain with A551N
B3: PcPOX (pyranose 2-oxidase from Phanerochaete chrysosporium) (Phanerodontia chrysosporium; A551L) (protein)
chain: B1 chain with A551L

substrate: OC[C@H]1OC(O)[C@H](O)[C@@H](O)[C@@H]1O; assay: purified protein; assay type: biochemical, Phanerodontia chrysosporium; details: 50 mM sodium phosphate pH 7.0, electron acceptor O2

| Protein | Km [mM] | kcat [s⁻¹] | kcat/Km [M⁻¹ s⁻¹] |
| --- | --- | --- | --- |
| B1 | 0.978 ± 0.156 | 115 ± 2 | 120000 |
| B2 | 12.1 ± 0.3 | 0.496 ± 0.021 | 41 |
| B3 | 3.44 ± 1.15 | 0.00659 ± 0.00129 | 1.9 |

substrate: OC[C@H]1OC[C@H](O)[C@@H](O)[C@@H]1O; assay: purified protein; assay type: biochemical, Phanerodontia chrysosporium; details: 50 mM sodium phosphate pH 7.0, electron acceptor O2

| Protein | Km [mM] | kcat [s⁻¹] | kcat/Km [M⁻¹ s⁻¹] |
| --- | --- | --- | --- |
| B1 | 18.9 ± 4.4 | 82.5 ± 10.3 | 4400 |
| B2 | 65.7 ± 4.5 | 0.253 ± 0.006 | 3.8 |
| B3 | 26.9 ± 3.5 | 0.00696 ± 0.00027 | 0.26 |
